Source: patent US12433934B2, “Methods and compositions for preventing and treating atherosclerosis and related diseases” (Shanghai Puyou Biomedical Co., Ltd., priority 2018, dated 2025)
“Also recorded” adds a separate entry of the source.

Key:
[1] = molecular target: T1, oxLDL (Homo sapiens, UniProt P04114); experiment: Co-incubation with oxLDL, SDS-PAGE separation, Coomassie brilliant blue staining; assay type: binding
T1 construct: purchased Solarbio H7980
Protocol: Experimental materials: sDSS1 protein, sDSS1 mutant protein 1 (sDSS1-M1, SEQ ID NO: 15), sDSS1 mutant protein 2 (sDSS1-M2, SEQ ID NO: 16), oxidized low density lipoprotein (oxLDL) (Solarbio, Article No.: H7980); low density lipoprotein (LDL) (Solarbio, Article No.: H7960).
Experimental method: 2 μg of oxLDL or LDL was mixed with 6 μg of sDSS1 protein or 10 μg of sDSS1 protein in a 1.5 ml EP tube in the presence of 20 mM sodium acetate/acetic acid buffer (pH 4.5) or 20 mM phosphate buffer (pH 7.2) respectively, and incubated at 37° C. for 12 h. A loading buffer was added in the incubated product and evenly mixed, and the obtained mixture was denatured at 100° C. for 10 min to prepare a loading sample. The resulting sample was subjected to electrophoretic separation via polyacrylamide gel electrophoresis (SDS-PAGE). After separation, the SDS-PAGE gel was stained with Coomassie brilliant blue to display protein strips. The sDSS1-M1 or sDSS1-M2 protein was respectively mixed and incubated with oxLDL, and treated in the same way. 15 μL of the sample was used for SDS-PAGE electrophoresis separation.

[2] = test system: human umbilical vein endothelial cells (HUVECs); experiment: Uptake of DiL-oxLDL by HUVEC cells (fluorescence microscope, flow cytometry); assay type: cell-based; details: 10 μg/ml DiL-oxLDL, 5 h
Protocol: Experimental materials: sDSS1 protein, DiL-oxLDL (Thermo Fisher technology, Article No.: L34358), human umbilical vein endothelial cell (HUVEC) (PromoCell, Article No.: C-12200).
Experimental method: HUVEC cells were inoculated into a 6-well plate with 300000 cells per well. After 24 h of adherence, 1.5 ml 10 μg/ml DiL-oxLDL was added, or 1.5 ml 10 μg/ml DiL-oxLDL was added together with 2 μg/ml, 5 μg/ml, 10 μg/ml or 20 μg/ml of the sDSS1 protein. After incubation for 5 h in an incubator, the fluorescence signal in the cells was observed by a fluorescence microscope. The cells were digested with trypsin to form single cells for detecting the fluorescence intensity via flow cytometry.

[3] = test system: macrophages differentiated from monocyte THP-1; experiment: Phagocytosis of DiL-oxLDL by macrophages differentiated from THP-1 (fluorescence microscope, flow cytometry); assay type: cell-based, human; details: 10 μg/ml DiL-oxLDL, 5 h
Protocol: Experimental materials: sDSS1 protein, DiL-oxLDL, phorbol ester (PMA, Sigma Aldrich, Article No.: P1585), human monocyte THP-1 (Cell Bank of Typical Culture Preservation Committee of Chinese Academy of Sciences, Catalog No.: SCSP-567).
Experimental method: THP-1 cells were inoculated into a 6-well plate with 250000 cells per well, and the culture solution contained 100 ng/mL PMA. After being activated by PMA for 48 h, the cells were cultured in a fresh culture medium for 4 days to facilitate cell adhesion. The old culture medium was discarded. 1.5 ml 10 μg/ml DiL-oxLDL was added, or 1.5 ml 10 μg/ml DiL-oxLDL was added together with 2 μg/ml, 5 μg/ml, 10 μg/ml, or 20 μg/ml of the sDSS1 protein. After incubation for 5 h in an incubator, the fluorescence signal in the cells was observed by a fluorescence microscope. The cells were digested by trypsin to form single cells for detecting fluorescence intensity via flow cytometry.

[4] = test system: Hep G2 cells; experiment: Uptake of DiL-oxLDL by Hep G2 cells (fluorescence microscope, flow cytometry); assay type: cell-based, human; details: 9 h
Protocol: Materials: sDSS1 protein, DiL-oxLDL, DiL-LDL (ThermoFisher, L3482), human hepatoma cell Hep G2 (Cell Bank of Typical Culture Preservation Committee of Chinese Academy of Sciences, Catalog Number: SCSP-510).
Experimental method: (1) When detecting the phagocytosis of oxLDL by Hep G2 cells, Hep G2 cells were inoculated into a 6-well plate with 250000 cells per well. After 12 h, all the cells were adhered. The old culture medium was discarded. 1.5 ml 10 μg/ml DiL-oxLDL was added, or 1.5 ml 10 μg/ml DiL-oxLDL was added together with 5 μg/ml and 50 μg/ml of the sDSS1 protein. After incubation for 9 h in the incubator, the fluorescence signal in the cells was observed by a fluorescence microscope. The cells were digested by trypsin to form single cells for detecting fluorescence intensity via flow cytometry. (2) When detecting the phagocytosis of LDL by Hep G2 cells, Hep G2 cells were inoculated into a 6-well plate with 250000 cells per well. After 12 h, all the cells were adhered. The old culture medium was discarded. 1.5 ml 10 μg/ml DiL-LDL was added, or 1.5 ml 10 μg/ml DiL-LDL was added together with 5 μg/ml and 50 μg/ml of the sDSS1 protein. After incubation for 10 h in the incubator, the fluorescence signal in the cells was observed by fluorescence microscope. The cells were digested by trypsin to form single cells for detecting fluorescence intensity via flow cytometry.

[5] = test system: ApoE−/− mice; experiment: Atherosclerotic plaques of the aorta (en face oil red O staining) in high-fat diet ApoE−/− mice; assay type: in vivo; details: 13 weeks
Protocol: FIGS. 15-16. The sDSS1 protein inhibits the formation of atherosclerotic plaques in ApoE−/− mice. […] At the end of the injection, the aorta was dissected for oil red O staining, and the area of plaques was calculated.
Experimental animals: ApoE−/− mice, 8-week-old, male, were purchased from Nanjing Biomedical Research Institute of Nanjing University. The experimental animals were housed in an animal room for one week before the experiment.
Experimental method: ApoE−/− mice were fed with high-fat diet containing 0.25% cholesterol starting from the age of 9 weeks. From the 10th week of high-fat diet feeding, the mice were randomly divided into three groups according to the total cholesterol level, with 10 mice in each group. […] At the 22nd week of high-fat diet feeding, that is, the 13th week of administration, the animals were executed and dissected, and the whole aorta was separated. The separated aorta was stained with en face oil red O to evaluate the formation of atherosclerotic plaques.

[6] = Toxic reaction in animal experiments; assay type: in vivo
Text: The sDSS1 protein used in the following examples is produced and quality controlled by the company itself. Upon detection, the purity of the protein is more than 95%, and endotoxins (the content of endotoxins is less than 3 EU/mg protein) and other impurity residues meet the standards.

T1 sequence (P04114 28-4563): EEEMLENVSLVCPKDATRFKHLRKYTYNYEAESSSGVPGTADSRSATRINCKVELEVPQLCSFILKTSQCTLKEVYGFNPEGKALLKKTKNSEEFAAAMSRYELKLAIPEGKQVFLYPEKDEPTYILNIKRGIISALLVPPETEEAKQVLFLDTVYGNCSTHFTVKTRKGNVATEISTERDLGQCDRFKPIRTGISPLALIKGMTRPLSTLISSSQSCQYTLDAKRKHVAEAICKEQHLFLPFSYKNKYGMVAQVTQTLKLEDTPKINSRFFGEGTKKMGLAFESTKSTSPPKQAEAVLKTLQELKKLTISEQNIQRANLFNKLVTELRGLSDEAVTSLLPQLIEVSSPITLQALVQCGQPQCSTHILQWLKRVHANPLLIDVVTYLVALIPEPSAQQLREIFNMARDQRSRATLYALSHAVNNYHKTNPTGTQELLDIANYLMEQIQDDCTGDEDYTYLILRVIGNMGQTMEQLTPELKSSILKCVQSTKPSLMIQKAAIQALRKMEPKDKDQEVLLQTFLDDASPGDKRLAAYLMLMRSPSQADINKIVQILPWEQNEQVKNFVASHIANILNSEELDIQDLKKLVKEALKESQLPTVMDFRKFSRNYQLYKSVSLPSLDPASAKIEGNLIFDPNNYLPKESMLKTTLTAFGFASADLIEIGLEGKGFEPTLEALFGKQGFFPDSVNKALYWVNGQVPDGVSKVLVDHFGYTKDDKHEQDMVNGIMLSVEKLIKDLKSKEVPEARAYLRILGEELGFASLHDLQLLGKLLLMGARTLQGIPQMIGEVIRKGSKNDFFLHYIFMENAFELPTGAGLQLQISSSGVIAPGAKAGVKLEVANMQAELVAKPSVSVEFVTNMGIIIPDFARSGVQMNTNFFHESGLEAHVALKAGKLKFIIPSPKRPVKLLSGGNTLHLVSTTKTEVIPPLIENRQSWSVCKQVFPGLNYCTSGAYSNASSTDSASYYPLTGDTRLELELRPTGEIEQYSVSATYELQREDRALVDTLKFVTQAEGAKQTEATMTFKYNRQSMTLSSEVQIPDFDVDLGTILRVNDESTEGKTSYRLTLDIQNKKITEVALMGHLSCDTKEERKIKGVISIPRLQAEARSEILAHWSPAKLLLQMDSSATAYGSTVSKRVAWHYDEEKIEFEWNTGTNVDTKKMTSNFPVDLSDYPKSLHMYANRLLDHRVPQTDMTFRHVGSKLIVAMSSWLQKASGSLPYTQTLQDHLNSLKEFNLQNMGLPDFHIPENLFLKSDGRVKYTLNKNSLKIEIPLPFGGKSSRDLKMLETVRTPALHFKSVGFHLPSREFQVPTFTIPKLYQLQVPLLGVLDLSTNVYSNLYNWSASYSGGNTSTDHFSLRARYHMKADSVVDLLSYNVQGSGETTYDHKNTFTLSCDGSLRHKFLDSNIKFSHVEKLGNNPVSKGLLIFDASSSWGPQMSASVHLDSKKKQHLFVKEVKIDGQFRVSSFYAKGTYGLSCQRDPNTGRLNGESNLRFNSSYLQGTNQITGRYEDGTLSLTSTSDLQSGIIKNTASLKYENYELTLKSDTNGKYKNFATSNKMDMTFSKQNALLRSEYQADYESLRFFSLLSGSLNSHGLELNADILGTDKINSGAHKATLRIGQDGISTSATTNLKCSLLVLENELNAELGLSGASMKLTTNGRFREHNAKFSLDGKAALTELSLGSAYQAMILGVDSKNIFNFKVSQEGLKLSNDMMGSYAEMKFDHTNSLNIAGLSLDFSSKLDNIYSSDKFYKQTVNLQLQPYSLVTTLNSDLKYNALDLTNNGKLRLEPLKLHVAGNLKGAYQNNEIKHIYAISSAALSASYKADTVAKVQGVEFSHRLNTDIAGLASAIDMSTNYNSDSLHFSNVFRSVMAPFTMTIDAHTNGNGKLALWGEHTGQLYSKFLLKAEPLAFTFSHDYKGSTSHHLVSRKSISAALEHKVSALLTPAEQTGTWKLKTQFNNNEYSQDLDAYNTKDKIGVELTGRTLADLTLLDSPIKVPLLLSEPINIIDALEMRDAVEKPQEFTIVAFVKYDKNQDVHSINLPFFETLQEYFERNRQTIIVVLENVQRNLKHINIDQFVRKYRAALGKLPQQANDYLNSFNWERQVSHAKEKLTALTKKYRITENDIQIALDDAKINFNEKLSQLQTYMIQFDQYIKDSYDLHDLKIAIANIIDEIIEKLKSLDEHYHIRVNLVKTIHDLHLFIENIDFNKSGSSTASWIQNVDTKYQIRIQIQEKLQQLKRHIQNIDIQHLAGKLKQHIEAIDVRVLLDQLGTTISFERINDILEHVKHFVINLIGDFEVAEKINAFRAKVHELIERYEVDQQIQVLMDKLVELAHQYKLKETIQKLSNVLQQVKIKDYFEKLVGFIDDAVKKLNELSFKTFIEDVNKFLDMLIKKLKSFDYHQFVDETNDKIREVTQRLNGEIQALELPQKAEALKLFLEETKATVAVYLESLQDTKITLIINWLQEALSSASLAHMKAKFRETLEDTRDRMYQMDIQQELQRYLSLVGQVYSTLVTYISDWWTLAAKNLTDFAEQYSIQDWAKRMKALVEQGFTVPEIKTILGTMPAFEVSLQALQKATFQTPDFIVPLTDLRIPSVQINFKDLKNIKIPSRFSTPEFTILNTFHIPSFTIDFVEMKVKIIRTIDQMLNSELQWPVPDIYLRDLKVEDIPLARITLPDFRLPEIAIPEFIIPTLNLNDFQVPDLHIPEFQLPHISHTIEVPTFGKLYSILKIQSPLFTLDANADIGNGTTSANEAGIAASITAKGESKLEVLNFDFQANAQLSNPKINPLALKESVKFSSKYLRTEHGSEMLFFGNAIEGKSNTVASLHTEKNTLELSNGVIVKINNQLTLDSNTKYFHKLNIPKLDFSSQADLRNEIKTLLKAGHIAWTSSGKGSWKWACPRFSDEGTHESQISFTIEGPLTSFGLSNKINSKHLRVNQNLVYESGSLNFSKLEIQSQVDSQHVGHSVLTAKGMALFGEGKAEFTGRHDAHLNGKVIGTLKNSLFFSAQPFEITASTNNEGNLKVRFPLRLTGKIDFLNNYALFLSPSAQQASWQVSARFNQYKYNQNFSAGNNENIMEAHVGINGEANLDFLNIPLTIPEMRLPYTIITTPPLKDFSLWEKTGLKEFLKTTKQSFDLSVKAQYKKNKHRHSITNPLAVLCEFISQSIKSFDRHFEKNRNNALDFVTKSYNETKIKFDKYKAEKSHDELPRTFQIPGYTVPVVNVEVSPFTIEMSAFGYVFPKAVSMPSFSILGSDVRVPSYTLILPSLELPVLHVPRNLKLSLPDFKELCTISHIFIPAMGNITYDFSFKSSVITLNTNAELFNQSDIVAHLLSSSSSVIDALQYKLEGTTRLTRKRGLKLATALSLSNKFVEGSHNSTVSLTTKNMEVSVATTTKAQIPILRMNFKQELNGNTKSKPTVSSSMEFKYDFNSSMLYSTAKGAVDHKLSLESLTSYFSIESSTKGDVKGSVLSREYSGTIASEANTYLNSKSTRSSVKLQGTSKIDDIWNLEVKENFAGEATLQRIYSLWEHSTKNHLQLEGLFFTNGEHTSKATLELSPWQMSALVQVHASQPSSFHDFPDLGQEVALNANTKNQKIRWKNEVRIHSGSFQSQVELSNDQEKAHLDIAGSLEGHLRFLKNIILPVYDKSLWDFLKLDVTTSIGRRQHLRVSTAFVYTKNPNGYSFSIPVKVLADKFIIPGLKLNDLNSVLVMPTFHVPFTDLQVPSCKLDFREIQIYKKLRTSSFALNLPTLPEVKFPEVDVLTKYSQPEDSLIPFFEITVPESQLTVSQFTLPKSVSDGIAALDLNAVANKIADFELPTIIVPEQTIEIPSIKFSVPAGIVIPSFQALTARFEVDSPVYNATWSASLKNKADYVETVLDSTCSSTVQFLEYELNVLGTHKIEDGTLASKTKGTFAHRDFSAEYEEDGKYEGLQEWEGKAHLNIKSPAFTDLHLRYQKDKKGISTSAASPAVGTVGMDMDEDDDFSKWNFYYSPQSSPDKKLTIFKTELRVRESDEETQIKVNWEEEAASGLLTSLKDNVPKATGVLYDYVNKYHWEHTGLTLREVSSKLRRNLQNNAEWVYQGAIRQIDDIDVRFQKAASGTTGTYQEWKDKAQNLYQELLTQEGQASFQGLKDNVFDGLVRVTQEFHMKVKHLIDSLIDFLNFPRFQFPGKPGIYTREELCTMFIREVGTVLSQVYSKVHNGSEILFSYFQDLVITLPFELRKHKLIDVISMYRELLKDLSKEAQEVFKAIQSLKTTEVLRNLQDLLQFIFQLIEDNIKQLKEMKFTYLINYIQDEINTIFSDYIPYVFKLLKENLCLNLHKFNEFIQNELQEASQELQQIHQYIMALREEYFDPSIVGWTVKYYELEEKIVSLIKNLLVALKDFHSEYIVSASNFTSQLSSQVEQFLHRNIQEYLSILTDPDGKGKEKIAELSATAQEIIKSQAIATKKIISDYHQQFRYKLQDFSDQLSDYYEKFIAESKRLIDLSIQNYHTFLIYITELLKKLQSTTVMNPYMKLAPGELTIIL

B1: sDSS1 protein: sDSS1 protein produced by the company itself, purity more than 95%; sequence of human sDSS1 protein is SEQ ID NO:1 (protein, listed as Homo sapiens)
chain: MSEKKQPVDLGLLEEDDEFEEFPAEDWAGLDEDEDAHVWEDNWDDDNVEDDFSNQLRATVLLMILVCETPYGCYVLHQKGRMCSAFLCC
**Q.** Which results are given for B1?
**A.** Interaction with oxLDL (complex on SDS-PAGE gel) ([1]; phosphate buffer pH 7.2): interacted with the sDSS1 protein; also recorded: resulted in interactions; Interaction with oxLDL (complex on SDS-PAGE gel) ([1]; sodium acetate/acetic acid buffer pH 4.5, 37° C., 12 h): interacted with the sDSS1 protein; also recorded: resulted in interactions; Fluorescence within HUVEC cells (flow cytometry) ([2]; 2 μg/ml sDSS1 protein): significantly weakened; Uptake of oxLDL by HUVEC cells (flow cytometry statistics) ([2]; 2 μg/ml sDSS1 protein): reduced by half; Fluorescence within HUVEC cells (flow cytometry) ([2]; 10 μg/ml sDSS1 protein): significantly weakened; Concentration dependence of the reduction of fluorescence / oxLDL uptake in HUVEC cells ([2]; 2, 5, 10, 20 μg/ml sDSS1 protein): concentration-dependent; also recorded: gradually weakened; also recorded: obviously dose-dependent; Macrophages having fluorescence (flow cytometry) ([3]; 2 μg/ml sDSS1 protein): not detected; also recorded: basically didn't appear; Macrophages having fluorescence (flow cytometry) ([3]; 10 μg/ml sDSS1 protein): not detected; also recorded: basically didn't appear; Fluorescence in macrophages (fluorescence microscope) ([3]; sDSS1 protein added (2 and 10 μg/ml)): no obvious fluorescence was observed in the cells, or the fluorescence was very weak; also recorded: basically no obvious fluorescent signals were observed; DiL fluorescence level within Hep G2 cells, DiL-oxLDL (flow cytometry) ([4]; 5 μg/ml sDSS1, 10 μg/ml DiL-oxLDL): does not significantly affect; also recorded: did not significantly affect; DiL signal intensity in Hep G2 cells, DiL-oxLDL (flow cytometry) ([4]; 50 μg/ml sDSS1 protein, 10 μg/ml DiL-oxLDL): significantly increase; Area of atherosclerotic plaques (en face oil red O) vs model group ([5]; sDSS1 3 mg/kg intraperitoneal once a day, high-fat diet): significantly reduced; Plaque area ratio (oil red O stained area / total aortic area) vs model group ([5]; sDSS1 3 mg/kg intraperitoneal once a day, **P<0.01): significantly smaller; Plaque area ratio, sDSS1 protein group vs positive drug group ([5]; sDSS1 3 mg/kg vs ATV 40 mg/kg): no significant difference; Effect on plaque area in certain areas of the aorta vs positive drug ([5]; sDSS1 3 mpk vs ATV 40 mpk): even better; Animal toxic reaction [6]: without causing obvious animal toxic reaction
